Data taken from article PMC9343967 (Nature, 2021).
Positions count from the first letter of the chain named. Names and notes keep the numbering of the source.

T1: LTK_(TG–EGFL) (human LTK residues 63–420) (human, UniProt P29376 63-420)
T1 sequence (looked up): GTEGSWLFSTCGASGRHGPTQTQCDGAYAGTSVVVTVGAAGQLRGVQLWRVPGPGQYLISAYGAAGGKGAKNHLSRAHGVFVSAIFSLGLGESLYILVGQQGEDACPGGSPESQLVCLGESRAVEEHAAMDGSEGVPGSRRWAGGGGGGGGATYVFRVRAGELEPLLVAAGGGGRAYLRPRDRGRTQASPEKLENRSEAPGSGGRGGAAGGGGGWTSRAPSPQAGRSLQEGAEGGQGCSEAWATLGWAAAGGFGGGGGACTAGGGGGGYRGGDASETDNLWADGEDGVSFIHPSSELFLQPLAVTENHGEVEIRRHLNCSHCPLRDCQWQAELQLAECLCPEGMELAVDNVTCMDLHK

B1: ALKAL2 (residues 78–152, conserved C-terminal domain) (ligand, human, UniProt Q6UX46 78-152, looked up)
chain: PSPEQRVEIVPRDLRMKDKFLKHLTGPLYFSPKCSKHFHRLYHNTRDCTIPAYYKRCARLLTRLAVSPVCMEDKQ
B2: purified ALKAL2^F97E (used in Ba/F3 and SEC-MALLS assays) (ligand, human, UniProt Q6UX46 78-152, looked up)
chain: B1 chain with F20E
B3: ALKAL1 (residues 57–129, conserved C-terminal domain) (ligand, human, UniProt Q6UXT8 57-129, looked up)
chain: PSGSRSAEIFPRDSNLKDKFIKHFTGPVTFSPECSKHFHRLYYNTRECSTPAYYKRCARLLTRLAVSPLCSQT
B4: purified ALKAL1^F76E (used in Ba/F3 and SEC-MALLS assays) (ligand, human, UniProt Q6UXT8 57-129, looked up)
chain: B3 chain with F20E
B5: ALKTG (human ALK residues 648–985) (domain or fragment, UniProt Q9UM73 648-985, looked up)
chain: TAPKSRNLFERNPNKELKPGENSPRQTPIFDPTVHWLFTTCGASGPHGPTQAQCNNAYQNSNLSVEVGSEGPLKGIQIWKVPATDTYSISGYGAAGGKGGKNTMMRSHGVSVLGIFNLEKDDMLYILVGQQGEDACPSTNQLIQKVCIGENNVIEEEIRVNRSVHEWAGGGGGGGGATYVFKMKDGVPVPLIIAAGGGGRAYGAKTDTFHPERLENNSSVLGLNGNSGAAGGGGGWNDNTSLLWAGKSLQEGATGGHSCPQAMKKWGWETRGGFGGGGGGCSSGGGGGGYIGGNAASNNDPEMDGEDGVSFISPLGILYTPALKVMEGHGEVNIKHYL
B6: ALK_(TG–EGFL) (human ALK residues 648–1038) (domain or fragment, UniProt Q9UM73 648-1038, looked up)
chain: TAPKSRNLFERNPNKELKPGENSPRQTPIFDPTVHWLFTTCGASGPHGPTQAQCNNAYQNSNLSVEVGSEGPLKGIQIWKVPATDTYSISGYGAAGGKGGKNTMMRSHGVSVLGIFNLEKDDMLYILVGQQGEDACPSTNQLIQKVCIGENNVIEEEIRVNRSVHEWAGGGGGGGGATYVFKMKDGVPVPLIIAAGGGGRAYGAKTDTFHPERLENNSSVLGLNGNSGAAGGGGGWNDNTSLLWAGKSLQEGATGGHSCPQAMKKWGWETRGGFGGGGGGCSSGGGGGGYIGGNAASNNDPEMDGEDGVSFISPLGILYTPALKVMEGHGEVNIKHYLNCSHCEVDECHMDPESHKVICFCDHGTVLAEDGVSCIVSPTPEPHLPLSLILS

Experiments:
[1] = biological target: B6; assay: ITC
[2] = biological target: full-length ALK ectodomain (ALKFL, residues 19–1038) (human, UniProt Q9UM73 19-1038); assay: ITC
[3] = biological target: T1, LTK_(TG–EGFL) (human LTK residues …); assay: ITC
[4] = biological target: B6; assay: SEC-MALS
[5] = biological target: T1, LTK_(TG–EGFL) (human LTK residues …); assay: SEC-MALS
[6] = biological target: B3; assay: ITC
[7] = biological target: B1; assay: ITC
[8] = biological target: B3; assay: SEC-MALS

Kd [1] [nM] | Kd [3] [nM] | stoichiometry N [4] [receptor per cytokine] | stoichiometry N [5] | Binder | further results
40 | 55 | 1 | 2 receptors per cytokine | B1 | stoichiometry N [2]: 1 receptor per cytokine
 |  | 1 |  | B2 | 
600 | 10 |  | 2 receptors per cytokine | B3 | 
 |  |  | 1 receptor per cytokine | B4 | 
 |  |  |  | B5 | fold reduction of affinity on removal of EGFL (against ALK_(TG–EGFL)) [6]: 4 fold; fold reduction of affinity on removal of EGFL (against ALK_(TG–EGFL)) [7]: 30 fold
 |  |  |  | B6 | stoichiometry N [8]: 1 receptor per cytokine
